Molecular target: epidermal growth factor receptor (EGFR) on EGFR positive U87 cells (UniProt P00533)
Assay: FACS, saturation binding to EGFR on cells

Anti-EGFR-Angiopep-2 conjugate (EGFR antibody monoclonal 528 cross-linked to Angiopep-2 with SATA)
Half saturation: 1.8 nM

EGFR antibody (monoclonal 528 available from ATCC)
Bmax (RFU): 23.6 RFU
Half saturation: 1.7 nM

Reference: patent US20100297120A1
